This assay deals with human glypican-3 (GPC3) on the cell surface (human), P51654. The assay can be described thus: cell-based or functional assay.

The values below come from patent US20210371542A1.

B1: CAR.hYP7 (GPC3-targeted chimeric antigen receptor with humanized YP7 scFv, CD8α hinge and TM, 4-1BB, CD3ζ) (protein)
chain: HMEVQLVESGGGLVQPGGSLRLSCAASGFTFNKNAMNWVRQAPGKGLEWVGRIRNKTNNYATYYADSVKARFTISRDDSKNSLYLQMNSLKTEDTAVYYCVAGNSFAYWGQGTLVTVSAGGGGSGGGGSGGGGSDIVMTQSPDSLAVSLGERATINCKSSQSLLYSSNQKNYLAWYQQKPGQPPKLLIYWASSRESGVPDRFSGSGSGTDFTLTISSLQAEDVAVYYCQQYYNYPLTFGQGTKLEIKTSTTTPAPRPPTPAPTIASQPLSLRPEACRPAAGGAVHTRGLDFACDIYIWAPLAGTCGVLLLSLVITKRGRKKLLYIFKQPFMRPVQTTQEEDGCSCRFPEEEEGGCELRVKFSRSADAPAYQQGQNQLYNELNLGRREEYDVLDKRRGRDPEMGGKPRRKNPQEGLYNELQKDKMAEAYSEIGMKGERRRGKGHDGLYQGLSTATKDTYDALHMQALPPR
For the molecule B1, the lytic activity against Hep3B cells at E:T ratio of 5 (HCC patient-derived T cells) lay within 30 to 70%; the lytic activity against Hep3B cells at E:T ratio of 5 (HCC patient-derived T cells), average came to 50%; the lytic activity against Hep3B cells at E:T ratio of 5 (healthy donor-derived T cells), average worked out at 90%.
